Numbered stars: 1 amine (or outer) side, 2 acyl side, 3 side chain; on linkers, the order of the positions; unused ones are H or OH. Bridge positions count the residues as written; N and C are the ends. Square brackets hold non-standard residues; d marks the D form. Ends that are not written are not given here. Bis(1,2,3triazol4ylCH2)ether = c1c(COCc2cn([*:2])nn2)nnn1[*:1]; Aha = [N-]=[N+]=NCC[C@H](N)C(=O)O
biological target: AlexaFluor647 tagged MDM2-GST (UniProt Q00987 1-491, AlexaFluor647 label); assay: flow cytometry on cells
Sequence (Q00987 whole entry): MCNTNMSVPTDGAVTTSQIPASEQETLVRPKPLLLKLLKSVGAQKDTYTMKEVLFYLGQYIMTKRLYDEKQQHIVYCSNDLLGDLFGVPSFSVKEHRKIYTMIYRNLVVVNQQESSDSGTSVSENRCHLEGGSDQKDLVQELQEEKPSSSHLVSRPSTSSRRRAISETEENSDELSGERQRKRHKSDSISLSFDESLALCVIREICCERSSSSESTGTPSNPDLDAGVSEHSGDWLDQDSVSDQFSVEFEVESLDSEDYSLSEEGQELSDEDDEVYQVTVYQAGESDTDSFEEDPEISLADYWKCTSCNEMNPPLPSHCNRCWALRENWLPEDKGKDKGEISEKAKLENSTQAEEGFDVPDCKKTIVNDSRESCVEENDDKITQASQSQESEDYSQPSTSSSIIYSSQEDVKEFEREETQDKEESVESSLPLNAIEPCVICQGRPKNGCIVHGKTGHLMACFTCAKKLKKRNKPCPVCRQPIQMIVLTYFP

Binder	Kd
VLSF[Aha]DYWNLL[Aha]GS [SPD-M3-V1, displayed on the bacterial surface, non-stabilized]	64 ± 33 nM
VLSF[Aha]DYWNLL[Aha]GS (triazole 5-12 via Bis(1,2,3triazol4ylCH2)ether) [SPD-M3-V1, displayed on the bacterial surface, stabilized]	9.8 ± 3.4 nM

biological target: biotinylated MDM2 truncate (residues 10-118) (UniProt Q00987 10-118, biotin (NHS-PEG4-Biotin)); assay: BLI
Sequence (Q00987 10-118): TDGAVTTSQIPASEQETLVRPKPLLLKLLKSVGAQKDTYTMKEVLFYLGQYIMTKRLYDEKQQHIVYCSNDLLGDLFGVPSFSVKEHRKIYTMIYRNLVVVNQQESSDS

Binder	Kd
VLSF[Aha]DYWNLL[Aha]GS-NH2 [SPD-M3-V1, synthetic, non-stabilized]	131 nM
GGTF[Aha]GYWADL[Aha]AF-NH2 [SPD-M3-G1, synthetic, non-stabilized]	21 nM
VLSF[Aha]DYWNLL[Aha]GS-NH2 (triazole 5-12 via Bis(1,2,3triazol4ylCH2)ether) [SPD-M3-V1, synthetic, stabilized]	14 nM
GGTF[Aha]GYWADL[Aha]AF-NH2 (triazole 5-12 via Bis(1,2,3triazol4ylCH2)ether) [SPD-M3-G1, synthetic, stabilized]	5.1 nM

— publication PMC7304070 (Journal of the American Chemical Society, 2020)
